Laboratory results: the supplement of paper PMC10065799, “High-throughput profiling of sequence recognition by tyrosine kinases and SH2 domains using bacterial peptide display” (eLife, 2023)

How the values were obtained:
[1] = tested on: AncSZ; test: phosphorylation enrichment, bacterial display (enrichment ratio); higher = better substrate or ligand; peptides without Tyr show the background
[2] = target: EPHB1 (UniProt P54762); test: as above
[3] = target: EPHB2 (UniProt P29323); test: as above
Chain of EPHB2 (P29323 whole entry, looked up): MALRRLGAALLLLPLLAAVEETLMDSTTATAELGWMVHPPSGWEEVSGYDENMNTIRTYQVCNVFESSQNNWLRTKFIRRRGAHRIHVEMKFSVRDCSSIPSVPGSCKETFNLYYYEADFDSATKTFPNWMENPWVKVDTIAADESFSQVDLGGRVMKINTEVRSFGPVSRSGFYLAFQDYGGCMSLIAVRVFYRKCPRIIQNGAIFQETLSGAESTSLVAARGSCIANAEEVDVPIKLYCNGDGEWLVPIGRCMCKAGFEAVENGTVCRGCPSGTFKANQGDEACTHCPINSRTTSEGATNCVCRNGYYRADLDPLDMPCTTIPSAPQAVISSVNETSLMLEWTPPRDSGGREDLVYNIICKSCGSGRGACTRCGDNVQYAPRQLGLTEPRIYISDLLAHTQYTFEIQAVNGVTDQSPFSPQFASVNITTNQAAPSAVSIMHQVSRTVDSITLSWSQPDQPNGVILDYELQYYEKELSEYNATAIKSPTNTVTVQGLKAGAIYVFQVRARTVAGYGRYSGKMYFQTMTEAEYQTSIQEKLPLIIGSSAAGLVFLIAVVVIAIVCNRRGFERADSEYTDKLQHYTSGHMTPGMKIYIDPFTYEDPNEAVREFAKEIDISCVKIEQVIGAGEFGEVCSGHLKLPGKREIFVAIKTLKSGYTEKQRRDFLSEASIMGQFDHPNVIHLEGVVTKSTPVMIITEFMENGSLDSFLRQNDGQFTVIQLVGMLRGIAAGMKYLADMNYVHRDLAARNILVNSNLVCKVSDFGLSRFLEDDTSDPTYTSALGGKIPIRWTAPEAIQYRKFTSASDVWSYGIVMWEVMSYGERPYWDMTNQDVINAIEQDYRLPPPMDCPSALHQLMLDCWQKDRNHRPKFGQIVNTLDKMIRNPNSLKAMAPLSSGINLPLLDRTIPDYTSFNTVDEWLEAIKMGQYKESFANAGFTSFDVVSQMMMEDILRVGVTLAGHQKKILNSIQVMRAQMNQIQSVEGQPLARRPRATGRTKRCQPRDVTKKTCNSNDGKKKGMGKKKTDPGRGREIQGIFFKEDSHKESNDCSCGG

[4] = target: FGFR1 (UniProt P11362); test: as above
[5] = target: FGFR3 (UniProt P22607); test: as above
Chain of FGFR3 (P22607 whole entry, looked up): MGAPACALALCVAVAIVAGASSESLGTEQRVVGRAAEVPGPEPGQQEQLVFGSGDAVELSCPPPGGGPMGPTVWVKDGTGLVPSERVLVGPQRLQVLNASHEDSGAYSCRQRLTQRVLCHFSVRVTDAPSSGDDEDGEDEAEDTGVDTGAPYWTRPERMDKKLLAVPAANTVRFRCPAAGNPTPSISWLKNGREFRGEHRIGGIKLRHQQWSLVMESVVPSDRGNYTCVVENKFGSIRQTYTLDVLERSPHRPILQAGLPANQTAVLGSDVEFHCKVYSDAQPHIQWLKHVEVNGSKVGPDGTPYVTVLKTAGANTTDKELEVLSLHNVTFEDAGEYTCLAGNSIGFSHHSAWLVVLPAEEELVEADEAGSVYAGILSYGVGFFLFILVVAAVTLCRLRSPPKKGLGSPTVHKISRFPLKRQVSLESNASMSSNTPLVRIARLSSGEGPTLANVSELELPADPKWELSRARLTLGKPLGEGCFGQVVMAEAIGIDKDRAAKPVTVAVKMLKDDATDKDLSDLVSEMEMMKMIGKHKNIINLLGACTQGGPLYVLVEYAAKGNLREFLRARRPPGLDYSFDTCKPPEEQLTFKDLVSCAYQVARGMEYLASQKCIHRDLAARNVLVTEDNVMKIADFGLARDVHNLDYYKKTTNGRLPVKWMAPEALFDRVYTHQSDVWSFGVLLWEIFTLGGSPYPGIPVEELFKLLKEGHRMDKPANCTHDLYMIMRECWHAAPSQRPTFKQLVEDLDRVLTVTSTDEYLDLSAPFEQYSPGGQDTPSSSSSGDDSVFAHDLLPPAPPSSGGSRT

[6] = tested on: Fer (mouse); test: as above
[7] = target: Fes (UniProt P07332); test: as above
Chain of Fes (P07332 whole entry, looked up): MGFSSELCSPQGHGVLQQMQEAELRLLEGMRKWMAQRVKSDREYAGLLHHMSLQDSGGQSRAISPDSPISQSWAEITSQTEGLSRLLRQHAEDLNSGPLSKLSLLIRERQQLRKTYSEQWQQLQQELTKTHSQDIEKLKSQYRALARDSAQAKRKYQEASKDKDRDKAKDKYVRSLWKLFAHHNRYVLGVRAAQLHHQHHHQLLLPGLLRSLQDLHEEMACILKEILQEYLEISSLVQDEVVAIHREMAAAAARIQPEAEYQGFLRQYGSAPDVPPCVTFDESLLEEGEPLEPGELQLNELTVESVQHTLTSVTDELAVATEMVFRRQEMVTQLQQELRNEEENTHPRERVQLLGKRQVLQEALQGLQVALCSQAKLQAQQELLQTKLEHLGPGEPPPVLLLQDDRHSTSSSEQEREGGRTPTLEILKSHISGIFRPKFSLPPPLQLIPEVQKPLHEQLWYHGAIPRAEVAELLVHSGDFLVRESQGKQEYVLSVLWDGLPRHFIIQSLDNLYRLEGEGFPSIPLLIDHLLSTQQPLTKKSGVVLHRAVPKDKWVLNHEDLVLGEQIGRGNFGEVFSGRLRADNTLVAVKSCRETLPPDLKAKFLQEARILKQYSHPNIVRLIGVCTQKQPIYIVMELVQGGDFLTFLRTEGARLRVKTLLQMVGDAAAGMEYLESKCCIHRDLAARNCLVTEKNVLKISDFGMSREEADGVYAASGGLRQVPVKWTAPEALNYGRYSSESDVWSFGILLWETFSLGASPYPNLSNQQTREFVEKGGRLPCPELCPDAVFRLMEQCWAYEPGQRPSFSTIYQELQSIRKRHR

[8] = target: Fyn (UniProt P06241); test: as above
Chain of Fyn (P06241 whole entry, looked up): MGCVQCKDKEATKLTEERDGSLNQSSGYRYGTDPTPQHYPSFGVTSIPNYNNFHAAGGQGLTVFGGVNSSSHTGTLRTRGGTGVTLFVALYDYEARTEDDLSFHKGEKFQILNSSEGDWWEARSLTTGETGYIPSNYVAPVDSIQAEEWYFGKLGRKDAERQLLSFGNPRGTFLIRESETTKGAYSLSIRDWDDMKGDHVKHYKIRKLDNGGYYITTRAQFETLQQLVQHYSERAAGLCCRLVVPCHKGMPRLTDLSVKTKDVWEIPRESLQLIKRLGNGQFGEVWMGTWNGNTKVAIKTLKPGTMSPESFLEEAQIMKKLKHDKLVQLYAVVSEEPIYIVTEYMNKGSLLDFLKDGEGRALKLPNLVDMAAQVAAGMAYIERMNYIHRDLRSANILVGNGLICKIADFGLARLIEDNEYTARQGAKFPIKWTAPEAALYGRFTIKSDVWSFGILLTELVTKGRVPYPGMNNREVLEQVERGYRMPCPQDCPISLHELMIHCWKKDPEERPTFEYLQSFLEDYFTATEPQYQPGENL

[9] = target: Hck (UniProt P08631); test: as above
Chain of Hck (P08631 whole entry, looked up): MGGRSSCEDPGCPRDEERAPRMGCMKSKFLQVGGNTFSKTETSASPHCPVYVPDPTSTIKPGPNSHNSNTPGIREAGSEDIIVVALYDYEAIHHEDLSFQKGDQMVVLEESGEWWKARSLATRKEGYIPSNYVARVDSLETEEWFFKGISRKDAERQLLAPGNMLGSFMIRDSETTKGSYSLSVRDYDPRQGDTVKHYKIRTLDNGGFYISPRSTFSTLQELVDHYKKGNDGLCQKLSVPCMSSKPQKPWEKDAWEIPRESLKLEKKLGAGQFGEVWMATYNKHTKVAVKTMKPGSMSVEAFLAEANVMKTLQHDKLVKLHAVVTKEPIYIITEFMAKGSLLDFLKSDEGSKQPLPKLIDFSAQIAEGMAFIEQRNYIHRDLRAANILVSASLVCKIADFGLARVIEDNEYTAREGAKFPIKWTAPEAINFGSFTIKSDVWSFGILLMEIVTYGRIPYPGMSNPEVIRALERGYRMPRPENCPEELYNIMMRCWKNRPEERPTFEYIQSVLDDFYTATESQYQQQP

[10] = target: Jak2 (UniProt O60674); test: as above
[11] = target: MERTK (UniProt Q12866); test: as above
Chain of MERTK (Q12866 whole entry, looked up): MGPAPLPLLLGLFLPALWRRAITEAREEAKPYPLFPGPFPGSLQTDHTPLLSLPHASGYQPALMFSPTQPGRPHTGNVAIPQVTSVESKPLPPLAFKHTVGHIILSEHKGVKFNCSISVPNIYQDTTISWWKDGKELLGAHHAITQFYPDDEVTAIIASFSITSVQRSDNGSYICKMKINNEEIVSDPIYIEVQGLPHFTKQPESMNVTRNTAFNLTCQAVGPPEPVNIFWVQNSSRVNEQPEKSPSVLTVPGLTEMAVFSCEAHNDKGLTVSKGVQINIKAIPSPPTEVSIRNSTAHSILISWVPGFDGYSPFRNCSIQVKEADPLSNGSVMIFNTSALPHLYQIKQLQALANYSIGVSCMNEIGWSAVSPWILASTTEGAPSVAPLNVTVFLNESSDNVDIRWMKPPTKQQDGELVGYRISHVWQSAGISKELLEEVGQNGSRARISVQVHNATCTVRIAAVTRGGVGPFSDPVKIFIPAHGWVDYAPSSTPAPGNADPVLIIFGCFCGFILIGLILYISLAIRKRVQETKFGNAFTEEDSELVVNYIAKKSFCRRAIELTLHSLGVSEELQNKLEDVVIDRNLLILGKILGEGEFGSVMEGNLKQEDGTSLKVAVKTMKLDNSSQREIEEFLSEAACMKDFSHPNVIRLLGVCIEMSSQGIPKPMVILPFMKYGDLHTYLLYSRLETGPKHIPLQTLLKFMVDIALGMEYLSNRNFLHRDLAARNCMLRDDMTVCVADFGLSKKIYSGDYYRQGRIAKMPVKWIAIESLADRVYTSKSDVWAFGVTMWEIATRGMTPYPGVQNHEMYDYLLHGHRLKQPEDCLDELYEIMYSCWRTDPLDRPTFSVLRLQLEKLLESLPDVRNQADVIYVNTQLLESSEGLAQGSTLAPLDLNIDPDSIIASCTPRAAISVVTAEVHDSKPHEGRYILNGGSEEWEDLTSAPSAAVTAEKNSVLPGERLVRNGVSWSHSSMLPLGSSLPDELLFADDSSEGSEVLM

[12] = tested on: c-Abl (mouse); test: as above
[13] = tested on: c-Src; test: as above
[14] = target: Grb2 SH2 (UniProt P62993); test: SH2 binding enrichment of the phosphorylated peptide, bacterial display (enrichment ratio); higher = better substrate or ligand; peptides without Tyr show the background
Chain of Grb2 SH2 (P62993 whole entry, looked up): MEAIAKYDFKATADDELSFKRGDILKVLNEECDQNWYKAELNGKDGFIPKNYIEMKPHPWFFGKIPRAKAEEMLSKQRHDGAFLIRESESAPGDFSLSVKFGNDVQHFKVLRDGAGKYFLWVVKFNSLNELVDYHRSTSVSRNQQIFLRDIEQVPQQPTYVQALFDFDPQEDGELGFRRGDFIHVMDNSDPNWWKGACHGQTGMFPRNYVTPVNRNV

[15] = target: SHP2-C SH2; test: as above
[16] = target: c-Src SH2; test: as above
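For SH2 binding enrichment of the phosphorylated peptide, bacterial display in this document: peptide library displayed on the E. coli surface as eCPX fusions, selected cells deep-sequenced, score is each peptide's frequency after selection divided by its frequency in the input.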
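For phosphorylation enrichment, bacterial display in this document: 11-residue human phosphosite peptides and single-mutation variants displayed on the E. coli surface, counted by deep sequencing, each peptide's frequency after selection divided by its frequency in the unselected input library; frequency after pTyr selection over input frequency; kinase dosed for 20-30% of maximal phosphorylation in three min.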

Work on NARGLYYKLHN [GATA2_Y376_C373R] yielded a phosphorylation enrichment [1] of 1.11, a phosphorylation enrichment [2] of 0.595 and a phosphorylation enrichment [3] of 0.586. For the same sequence, the phosphorylation enrichment [4] was 1.08, the phosphorylation enrichment [5] was 1.02 and the phosphorylation enrichment [6] was 0.496. It also gave a phosphorylation enrichment [7] of 0.975, a phosphorylation enrichment [8] of 0.572 and a phosphorylation enrichment [9] of 0.954. For the same sequence, the phosphorylation enrichment [10] was 2.12, the phosphorylation enrichment [11] was 2.59 and the phosphorylation enrichment [12] was 0.874. The phosphorylation enrichment [13] was 0.695, the SH2 binding enrichment [14] was 1.02 and the SH2 binding enrichment [15] was 0.866. For the same sequence, the SH2 binding enrichment [16] was 1.23.

For NCFKFYMSDDI [ATRX_Y204_YF], the phosphorylation enrichment [1] was 1.2, the phosphorylation enrichment [2] was 0.605 and the phosphorylation enrichment [3] was 0.53. It also gave a phosphorylation enrichment [4] of 0.565, a phosphorylation enrichment [5] of 0.745 and a phosphorylation enrichment [6] of 0.521. The phosphorylation enrichment [7] was 1.23, the phosphorylation enrichment [8] was 0.386 and the phosphorylation enrichment [9] was 0.512. For the same sequence, the phosphorylation enrichment [10] was 1.17, the phosphorylation enrichment [11] was 0.394 and the phosphorylation enrichment [12] was 0.95. It also gave a phosphorylation enrichment [13] of 0.447, an SH2 binding enrichment [14] of 0.973 and an SH2 binding enrichment [15] of 0.721. For the same sequence, the SH2 binding enrichment [16] was 0.689.

Work on NCFKYYMSDDI [ATRX_Y204] yielded a phosphorylation enrichment [1] of 1.33, a phosphorylation enrichment [2] of 0.748 and a phosphorylation enrichment [3] of 0.625. It also gave a phosphorylation enrichment [4] of 0.959, a phosphorylation enrichment [5] of 0.931 and a phosphorylation enrichment [6] of 0.496. For the same sequence, the phosphorylation enrichment [7] was 1.51, the phosphorylation enrichment [8] was 0.491 and the phosphorylation enrichment [9] was 0.548. For the same sequence, the phosphorylation enrichment [10] was 1.32, the phosphorylation enrichment [11] was 0.562 and the phosphorylation enrichment [12] was 1.17. It also gave a phosphorylation enrichment [13] of 0.811, an SH2 binding enrichment [14] of 0.97 and an SH2 binding enrichment [15] of 0.799. For the same sequence, the SH2 binding enrichment [16] was 1.52.

NCLREYVAGRF [CRB1_Y711] was tested, and the phosphorylation enrichment [1] was 0.702, the phosphorylation enrichment [2] was 0.469 and the phosphorylation enrichment [3] was 0.554. The phosphorylation enrichment [4] was 0.53, the phosphorylation enrichment [5] was 0.51 and the phosphorylation enrichment [6] was 0.417. The phosphorylation enrichment [7] was 0.891, the phosphorylation enrichment [8] was 0.487 and the phosphorylation enrichment [9] was 0.411. For the same sequence, the phosphorylation enrichment [10] was 0.91, the phosphorylation enrichment [11] was 0.461 and the phosphorylation enrichment [12] was 0.651. It also gave a phosphorylation enrichment [13] of 0.555, an SH2 binding enrichment [14] of 0.915 and an SH2 binding enrichment [15] of 0.684. For the same sequence, the SH2 binding enrichment [16] was 0.531.

NDDDVYRSLEE [VAV2_Y142] showed a phosphorylation enrichment [1] of 1.19, a phosphorylation enrichment [2] of 0.6 and a phosphorylation enrichment [3] of 0.722. The phosphorylation enrichment [4] was 0.608, the phosphorylation enrichment [5] was 0.793 and the phosphorylation enrichment [6] was 0.526. It also gave a phosphorylation enrichment [7] of 1.23, a phosphorylation enrichment [8] of 0.53 and a phosphorylation enrichment [9] of 0.665. For the same sequence, the phosphorylation enrichment [10] was 1.24, the phosphorylation enrichment [11] was 0.524 and the phosphorylation enrichment [12] was 0.898. The phosphorylation enrichment [13] was 0.584, the SH2 binding enrichment [14] was 1 and the SH2 binding enrichment [15] was 0.748. The SH2 binding enrichment [16] was 0.606.

NDEDIYKGLPD [VAV3_Y141] showed a phosphorylation enrichment [1] of 1.23, a phosphorylation enrichment [2] of 0.727 and a phosphorylation enrichment [3] of 0.674. The phosphorylation enrichment [4] was 0.584, the phosphorylation enrichment [5] was 0.794 and the phosphorylation enrichment [6] was 0.534. The phosphorylation enrichment [7] was 1.21, the phosphorylation enrichment [8] was 0.879 and the phosphorylation enrichment [9] was 0.878. For the same sequence, the phosphorylation enrichment [10] was 0.947, the phosphorylation enrichment [11] was 0.444 and the phosphorylation enrichment [12] was 0.802. For the same sequence, the phosphorylation enrichment [13] was 0.837, the SH2 binding enrichment [14] was 0.85 and the SH2 binding enrichment [15] was 0.902. It also gave an SH2 binding enrichment [16] of 0.57.

With NDHHFYLEGTL [ALDOB_Y223_V222F] the phosphorylation enrichment [1] was 0.939, the phosphorylation enrichment [2] was 0.497 and the phosphorylation enrichment [3] was 0.547. The phosphorylation enrichment [4] was 0.489, the phosphorylation enrichment [5] was 0.696 and the phosphorylation enrichment [6] was 0.498. For the same sequence, the phosphorylation enrichment [7] was 1.19, the phosphorylation enrichment [8] was 0.398 and the phosphorylation enrichment [9] was 0.43. For the same sequence, the phosphorylation enrichment [10] was 0.964, the phosphorylation enrichment [11] was 0.409 and the phosphorylation enrichment [12] was 0.646. The phosphorylation enrichment [13] was 0.392, the SH2 binding enrichment [14] was 0.787 and the SH2 binding enrichment [15] was 0.745. It also gave an SH2 binding enrichment [16] of 0.67.

In the case of NELTYYCYKKD [CD59_Y87_C89Y], the phosphorylation enrichment [1] is reported as 1.81, the phosphorylation enrichment [2] is reported as 0.804 and the phosphorylation enrichment [3] is reported as 0.826. For the same sequence, the phosphorylation enrichment [4] was 2.1, the phosphorylation enrichment [5] was 1.98 and the phosphorylation enrichment [6] was 0.692. For the same sequence, the phosphorylation enrichment [7] was 1.51, the phosphorylation enrichment [8] was 3.84 and the phosphorylation enrichment [9] was 4.17. It also gave a phosphorylation enrichment [10] of 2, a phosphorylation enrichment [11] of 1.77 and a phosphorylation enrichment [12] of 5.45. The phosphorylation enrichment [13] was 4.48, the SH2 binding enrichment [14] was 0.728 and the SH2 binding enrichment [15] was 0.505. For the same sequence, the SH2 binding enrichment [16] was 0.482.

Sequence NGSFLYVIISQ [LRP1B_Y1988_R1987L] has a phosphorylation enrichment [1] of 1.27, a phosphorylation enrichment [2] of 0.844 and a phosphorylation enrichment [3] of 0.666. It also gave a phosphorylation enrichment [4] of 0.468, a phosphorylation enrichment [5] of 0.88 and a phosphorylation enrichment [6] of 0.663. It also gave a phosphorylation enrichment [7] of 1.44, a phosphorylation enrichment [8] of 0.367 and a phosphorylation enrichment [9] of 0.539. It also gave a phosphorylation enrichment [10] of 1.2, a phosphorylation enrichment [11] of 0.468 and a phosphorylation enrichment [12] of 0.931. It also gave a phosphorylation enrichment [13] of 0.403, an SH2 binding enrichment [14] of 0.68 and an SH2 binding enrichment [15] of 0.546. It also gave an SH2 binding enrichment [16] of 0.47.

Sequence NHQYDYTFDWT [CSNK1A1_Y294] has a phosphorylation enrichment [1] of 1.38, a phosphorylation enrichment [2] of 0.606 and a phosphorylation enrichment [3] of 0.767. It also gave a phosphorylation enrichment [4] of 3.99, a phosphorylation enrichment [5] of 2.67 and a phosphorylation enrichment [6] of 0.569. It also gave a phosphorylation enrichment [7] of 0.991, a phosphorylation enrichment [8] of 0.66 and a phosphorylation enrichment [9] of 0.543. For the same sequence, the phosphorylation enrichment [10] was 0.899, the phosphorylation enrichment [11] was 1.04 and the phosphorylation enrichment [12] was 0.646. The phosphorylation enrichment [13] was 1.62, the SH2 binding enrichment [14] was 1.07 and the SH2 binding enrichment [15] was 0.561. It also gave an SH2 binding enrichment [16] of 3.

Sequence NKEPRYQEEPP [TJP2_Y479_D482E] has a phosphorylation enrichment [1] of 1.1, a phosphorylation enrichment [2] of 0.499 and a phosphorylation enrichment [3] of 0.67. For the same sequence, the phosphorylation enrichment [4] was 0.444, the phosphorylation enrichment [5] was 0.685 and the phosphorylation enrichment [6] was 0.43. It also gave a phosphorylation enrichment [7] of 1.18, a phosphorylation enrichment [8] of 0.507 and a phosphorylation enrichment [9] of 0.508. The phosphorylation enrichment [10] was 0.915, the phosphorylation enrichment [11] was 0.501 and the phosphorylation enrichment [12] was 0.907. It also gave a phosphorylation enrichment [13] of 0.421, an SH2 binding enrichment [14] of 1.07 and an SH2 binding enrichment [15] of 0.644. For the same sequence, the SH2 binding enrichment [16] was 0.568.

Work on NLTVNYKKNLI [SQOR_Y259] yielded a phosphorylation enrichment [1] of 0.669, a phosphorylation enrichment [2] of 0.486 and a phosphorylation enrichment [3] of 0.401. The phosphorylation enrichment [4] was 0.427, the phosphorylation enrichment [5] was 0.461 and the phosphorylation enrichment [6] was 0.427. It also gave a phosphorylation enrichment [7] of 1.05, a phosphorylation enrichment [8] of 0.351 and a phosphorylation enrichment [9] of 0.389. For the same sequence, the phosphorylation enrichment [10] was 0.619, the phosphorylation enrichment [11] was 0.435 and the phosphorylation enrichment [12] was 0.495. For the same sequence, the phosphorylation enrichment [13] was 0.43, the SH2 binding enrichment [14] was 0.916 and the SH2 binding enrichment [15] was 0.61. It also gave an SH2 binding enrichment [16] of 0.456.

Work on NPQKSYFILLY [WAS_Y83_R86L] yielded a phosphorylation enrichment [1] of 0.958, a phosphorylation enrichment [2] of 0.657 and a phosphorylation enrichment [3] of 0.551. For the same sequence, the phosphorylation enrichment [4] was 1.79, the phosphorylation enrichment [5] was 1.38 and the phosphorylation enrichment [6] was 0.437. The phosphorylation enrichment [7] was 1.19, the phosphorylation enrichment [8] was 0.421 and the phosphorylation enrichment [9] was 0.434. For the same sequence, the phosphorylation enrichment [10] was 1.19, the phosphorylation enrichment [11] was 0.396 and the phosphorylation enrichment [12] was 0.719. For the same sequence, the phosphorylation enrichment [13] was 0.416, the SH2 binding enrichment [14] was 0.914 and the SH2 binding enrichment [15] was 0.827. For the same sequence, the SH2 binding enrichment [16] was 0.573.

In the case of NPSFNYEIVNR [DYNC1H1_Y3379_YF], the phosphorylation enrichment [1] is reported as 1.15, the phosphorylation enrichment [2] is reported as 2.91 and the phosphorylation enrichment [3] is reported as 1.29. The phosphorylation enrichment [4] was 0.488, the phosphorylation enrichment [5] was 0.666 and the phosphorylation enrichment [6] was 0.514. For the same sequence, the phosphorylation enrichment [7] was 1.19, the phosphorylation enrichment [8] was 0.445 and the phosphorylation enrichment [9] was 0.535. It also gave a phosphorylation enrichment [10] of 1.1, a phosphorylation enrichment [11] of 0.387 and a phosphorylation enrichment [12] of 0.588. It also gave a phosphorylation enrichment [13] of 0.388, an SH2 binding enrichment [14] of 0.825 and an SH2 binding enrichment [15] of 0.753. For the same sequence, the SH2 binding enrichment [16] was 0.574.
